For one molecule, Kd results are on record in patent US20210238288A1 (Genentech, published 2021).

One test has as its target T1, α4β7 integrin (human, UniProt P13612 34-970; P26010 20-723).
T1 construct: Heterodimer; also called alpha4beta7
Description: method not stated.

The next test has as its target T2, αEβ7 integrin (human, UniProt P38570 19-1124; P26010 20-723).
T2 construct: Heterodimer; also called alphaEbeta7; CD103 (αE subunit)
Kind of test: method not stated.

T2 sequence (P38570 19-1124, chain 1 of 2): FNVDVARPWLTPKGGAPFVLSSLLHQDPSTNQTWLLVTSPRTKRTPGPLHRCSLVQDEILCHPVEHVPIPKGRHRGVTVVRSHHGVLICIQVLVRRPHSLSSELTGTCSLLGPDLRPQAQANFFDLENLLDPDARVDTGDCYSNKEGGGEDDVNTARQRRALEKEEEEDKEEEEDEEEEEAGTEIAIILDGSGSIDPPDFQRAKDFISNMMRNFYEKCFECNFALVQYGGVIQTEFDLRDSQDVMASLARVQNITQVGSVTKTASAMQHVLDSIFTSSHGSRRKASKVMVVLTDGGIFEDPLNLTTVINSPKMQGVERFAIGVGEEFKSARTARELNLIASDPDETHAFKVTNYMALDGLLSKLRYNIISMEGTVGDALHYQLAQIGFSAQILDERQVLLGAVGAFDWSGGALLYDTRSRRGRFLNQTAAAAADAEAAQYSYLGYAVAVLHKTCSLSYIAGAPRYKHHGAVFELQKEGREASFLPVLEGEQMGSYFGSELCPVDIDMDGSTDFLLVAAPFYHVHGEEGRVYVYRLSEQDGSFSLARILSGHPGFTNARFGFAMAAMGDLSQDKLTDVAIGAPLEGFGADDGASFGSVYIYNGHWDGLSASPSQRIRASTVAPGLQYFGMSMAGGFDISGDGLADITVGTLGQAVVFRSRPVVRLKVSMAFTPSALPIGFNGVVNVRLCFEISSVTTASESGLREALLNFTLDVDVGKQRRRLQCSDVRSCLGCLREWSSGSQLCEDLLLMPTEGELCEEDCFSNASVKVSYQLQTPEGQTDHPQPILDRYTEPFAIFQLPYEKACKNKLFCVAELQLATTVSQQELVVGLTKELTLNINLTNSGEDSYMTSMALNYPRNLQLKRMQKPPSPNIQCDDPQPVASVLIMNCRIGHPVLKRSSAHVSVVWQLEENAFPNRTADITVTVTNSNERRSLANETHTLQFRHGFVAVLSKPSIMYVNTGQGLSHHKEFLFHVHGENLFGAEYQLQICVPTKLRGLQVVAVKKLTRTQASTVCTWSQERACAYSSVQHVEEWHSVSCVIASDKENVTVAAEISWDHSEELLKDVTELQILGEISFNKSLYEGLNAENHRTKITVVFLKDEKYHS
T2 sequence (P26010 20-723, chain 2 of 2): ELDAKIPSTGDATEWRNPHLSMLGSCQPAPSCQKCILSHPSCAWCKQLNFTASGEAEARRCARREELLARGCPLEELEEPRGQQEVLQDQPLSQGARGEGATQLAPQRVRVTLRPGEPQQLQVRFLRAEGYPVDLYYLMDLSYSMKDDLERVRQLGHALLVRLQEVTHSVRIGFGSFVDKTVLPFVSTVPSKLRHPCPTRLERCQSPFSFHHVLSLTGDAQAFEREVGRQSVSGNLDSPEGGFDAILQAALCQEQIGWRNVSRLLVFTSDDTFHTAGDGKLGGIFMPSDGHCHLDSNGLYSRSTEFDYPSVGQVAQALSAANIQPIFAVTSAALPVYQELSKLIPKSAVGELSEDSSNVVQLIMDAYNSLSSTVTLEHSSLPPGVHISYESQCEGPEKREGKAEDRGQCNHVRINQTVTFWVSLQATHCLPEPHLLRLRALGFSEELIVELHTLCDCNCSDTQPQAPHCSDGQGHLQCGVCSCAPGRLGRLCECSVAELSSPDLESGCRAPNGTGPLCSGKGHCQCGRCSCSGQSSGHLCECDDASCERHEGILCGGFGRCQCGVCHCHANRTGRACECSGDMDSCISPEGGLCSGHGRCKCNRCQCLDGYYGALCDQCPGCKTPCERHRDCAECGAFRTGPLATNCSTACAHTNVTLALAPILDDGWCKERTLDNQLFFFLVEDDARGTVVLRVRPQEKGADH

B1: rhuMAb Beta7 (etrolizumab) (antibody, V domains shown)
VH: EVQLVESGGGLVQPGGSLRLSCAASGFFITNNYWGWVRQAPGKGLEWVGYISYSGSTSYNPSLKSRFTISRDTSKNTFYLQMNSLRAEDTAVYYCARTGSSGYFDFWGQGTLVTVSS
VL: DIQMTQSPSSLSASVGDRVTITCRASESVDDLLHWYQQKPGKAPKLLIKYASQSISGVPSRFSGSGSGTDFTLTISSLQPEDFATYYCQQGNSLPNTFGQGTKVEIKR
Take B1: the dissociation constant Kd with α4β7 integrin was roughly 0.116 nM; with αEβ7 integrin, roughly 1.8 nM.
